In US20120219567A1 (Biogen, published 2012):
Positions count from the first letter of the chain named.

B1: AP-Nogo-66 (ligand, UniProt Q9NQC3 1055-1120, looked up)
chain: RIYKGVIQAIQKSDEGHPFRAYLESEVAISEELVQKYSNSALGHVNCTIKELRRLFLVDDLVDSLK
notes: domain: Nogo-66; also called AP-Ng-66; Nogo-66 ligand; not shown: alkaline phosphatase (AP) moiety
B2: human NgR mutant 158, 160 (mutated to alanine) (receptor)
chain: CPGACVCYNEPKVTTSCPQQGLQAVPVGIPAASQRIFLHGNRISHVPAASFRACRNLTILWLHSNVLARIDAAAFTGLALLEQLDLSDNAQLRSVDPATFHGLGRLHTLHLDRCGLQELGPGLFRGLAALQALALQDNALQALPDDTFRDLGNLTHLFLHGNRISSVPERAFRGLHSLDRLLLHQNRVAHVHPHAFRDLGRLMTLYLFANNLSALPTEALAPLRALQYLRLNDNPWVCDCRARPLWAWLQKFRGSSSEVPCSLPQRLAGRDLKRLAANDLQGCAVATGPYHPIWTGRATDEEPLGLPKCCQPDAADKASVLEPGRPASAGNALKGRVPPGDSPPGNGSGPRHINDSPFGTLPGSAEPPLTAVRPEGSEPPGFPTSGPRRRPGCSRKNRTRSHCRLGQAGSGGGGTGDSE
B3: human NgR mutant 211, 213, 237, 256, 259, 284 (mutated to alanine) (receptor)
chain: B2 chain with A132Y, A134Y, Q185A, R187A, N211A, R230A, D233A, E258A
B4: human NgR mutant 67, 68, 71 (mutated to alanine) (receptor)
chain: B2 chain with N41A, R42A, H45A, A132Y, A134Y
B5: human NgR mutant 189, 191, 211, 213 (mutated to alanine) (receptor)
chain: B2 chain with A132Y, A134Y, R163A, S165A, Q185A, R187A
B6: human NgR mutant 211, 213 (mutated to alanine) (receptor)
chain: B2 chain with A132Y, A134Y, Q185A, R187A
B7: human NgR mutant 111, 113, 114, 138 (mutated to alanine) (receptor)
chain: B2 chain with D85A, S87A, D88A, D112A, A132Y, A134Y
B8: human NgR mutant 82, 179 (mutated to alanine) (receptor)
chain: B2 chain with N56A, A132Y, A134Y, N153A
B9: human NgR mutant 182, 186, 210 (mutated to alanine) (receptor)
chain: B2 chain with A132Y, A134Y, H156A, H160A, H184A
B10: human NgR mutant 87, 89, 133, 136 (mutated to alanine) (receptor)
chain: B2 chain with W61A, H63A, H107A, H110A, A132Y, A134Y
B11: human NgR mutant 111, 113, 114 (mutated to alanine) (receptor)
chain: B2 chain with D85A, S87A, D88A, A132Y, A134Y
B12: human NgR mutant 182, 186 (mutated to alanine) (receptor)
chain: B2 chain with A132Y, A134Y, H156A, H160A
B13: human NgR mutant 232, 234 (mutated to alanine) (receptor)
chain: B2 chain with A132Y, A134Y, Y206A, F208A
B14: human NgR mutant 67, 68, 71, 89, 90, 92 (mutated to alanine) (receptor)
chain: B2 chain with N41A, R42A, H45A, H63A, S64A, V66A, A132Y, A134Y
B15: human NgR mutant 182, 186, 158, 160 (mutated to alanine) (receptor)
chain: B2 chain with H156A, H160A
B16: human NgR mutant 133, 136 (mutated to alanine) (receptor)
chain: B2 chain with H107A, H110A, A132Y, A134Y
B17: human NgR mutant 171, 172, 175, 176, 196, 199, 220, 223, 224, 250 (mutated to alanine) (receptor)
chain: CPGACVCYNEPKVTTSCPQQGLQAVPVGIPAASQRIFLHGNRISHVPAASFRACRNLTILWLHSNVLARIDAAAFTGLALLEQLDLSDNAQLRSVDPATFHGLGRLHTLHLDRCGLQELGPGLFRGLAALQYLYLQDNALQALPAATFAALGNLTHLFLHGNRISSVPEAAFAGLHSLDRLLLHQNRVAHVHPAAFAALGRLMTLYLFANNLSALPTEALAPLAALQYLRLNDNPWVCDCRARPLWAWLQKFRGSSSEVPCSLPQRLAGRDLKRLAANDLQGCAVATGPYHPIWTGRATDEEPLGLPKCCQPDAADKASVLEPGRPASAGNALKGRVPPGDSPPGNGSGPRHINDSPFGTLPGSAEPPLTAVRPEGSEPPGFPTSGPRRRPGCSRKNRTRSHCRLGQAGSGGGGTGDSE
notes: Label runs over two printed rows (r20c1 and r21c1)

target: T1, human NgR mutant 163 (mutated to alanine) (human, UniProt Q9BZR6 27-445); test: AP-ligand binding to transfected COS-7 cells
T1 sequence: B2 chain with A132Y, A134Y, D137A
Experimental: (§1) In order to probe the NgR domains that interact with Aβ and Nogo-66, a strategy based on the crystal structure of NgR was employed. A number of human NgR surface-accessible residues were mutated to Ala either individually or as groups of adjacent residues (Table 3), and resultant ligand binding characteristics were assessed. The ligand concentrations were AP, 30 nM, AP-Nogo-66, 5 nM, AP-Aβ(1-28), 50 nM. NgR mutagenesis has been previously described. Hu et al., J Neurosci 25:5298-5304 (2005); Fournier et al., J Neurosci 23:1416-1423 (2003). The expression of each mutant NgR protein was verified by immunohistochemical detection at the surface of cells transfected with expression vector (FIG. 2a). Bound AP was stained and measured using NIH image software. Mutants of human NgR were detected on the surface of transfected COS-7 immunofluorescently. For each of the mutants with altered binding characteristics, expression of immunoreactive NgR protein with electrophoretic mobility similar to wild type was also confirmed by immunoblot (FIG. 2c). Whole COS-7 cell lysates expressing NgR mutants were subjected to SDS-PAGE and blotted with anti-NgR antibodies. The mobility of each mutant was indistinguishable from wild type NgR, except for the mutations in N-linked glycosylation sites (N82 and N179). The binding of both AP-Aβ(1-28) and AP-Nogo-66 ligands to cells expressing this collection of NgR mutant proteins was assessed at concentrations equal to the predetermined Kd's of the ligands (FIG. 2b, d).

Binding result, no binding (tested: 5 nM):
B1

target: B1; test: AP-ligand binding to transfected COS-7 cells
Experimental: as §1

Binding result, no binding (tested: 5 nM):
B2
B3
B4
B5
B6
B7
B8
B9
B10
B11
B12
B13
B14
B15
B16
B17
